Assay results from patent EP4772613A1 (GI Cell, Inc., dated 2026).
Changes are numbered by the printed parent chain. Names may count otherwise. Each block holds one binder with its values, some of them ahead of it.

What was measured:
[1] = target: T1, IL-2Rβ and common γ chain on HEK-Blue CD122/132 cells (InvivoGen hkb-il2bg) (UniProt P14784 27-551; P31785 23-369, limits assumed); assay: cell-based or functional assay
T1 sequence (looked up) 1: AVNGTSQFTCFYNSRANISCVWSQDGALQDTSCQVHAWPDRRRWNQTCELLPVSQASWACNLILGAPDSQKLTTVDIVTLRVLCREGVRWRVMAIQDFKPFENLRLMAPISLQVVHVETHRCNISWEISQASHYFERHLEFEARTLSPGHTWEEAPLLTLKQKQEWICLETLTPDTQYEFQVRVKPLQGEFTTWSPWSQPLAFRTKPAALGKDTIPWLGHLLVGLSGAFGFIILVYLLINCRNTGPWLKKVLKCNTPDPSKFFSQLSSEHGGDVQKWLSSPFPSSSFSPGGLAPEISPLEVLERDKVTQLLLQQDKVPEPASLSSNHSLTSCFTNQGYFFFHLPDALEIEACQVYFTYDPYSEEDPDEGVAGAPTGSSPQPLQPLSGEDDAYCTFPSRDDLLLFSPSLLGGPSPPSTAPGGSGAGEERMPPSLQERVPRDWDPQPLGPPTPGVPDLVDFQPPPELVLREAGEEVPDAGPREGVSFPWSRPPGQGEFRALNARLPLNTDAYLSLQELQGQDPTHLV
T1 sequence (looked up) 2: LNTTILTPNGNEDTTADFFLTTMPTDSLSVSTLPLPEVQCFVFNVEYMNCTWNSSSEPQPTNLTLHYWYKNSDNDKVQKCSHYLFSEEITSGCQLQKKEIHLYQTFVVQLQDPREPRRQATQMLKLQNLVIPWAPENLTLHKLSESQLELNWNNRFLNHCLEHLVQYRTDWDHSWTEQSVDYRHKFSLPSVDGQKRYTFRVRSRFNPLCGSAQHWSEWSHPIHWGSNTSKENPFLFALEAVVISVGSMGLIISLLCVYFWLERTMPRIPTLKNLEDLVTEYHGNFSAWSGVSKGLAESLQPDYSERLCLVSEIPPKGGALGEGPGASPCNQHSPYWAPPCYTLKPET

[2] = target: T2, IL-2Rβ-his (Acro CD2-H5221) (UniProt P14784 27-239); assay: Octet BLI; IL-2Rβ-his on Ni-NTA sensor, analyte 2,000 to 31.25 nM
T2 construct: also called CD122; not shown: his tag
T2 sequence (looked up): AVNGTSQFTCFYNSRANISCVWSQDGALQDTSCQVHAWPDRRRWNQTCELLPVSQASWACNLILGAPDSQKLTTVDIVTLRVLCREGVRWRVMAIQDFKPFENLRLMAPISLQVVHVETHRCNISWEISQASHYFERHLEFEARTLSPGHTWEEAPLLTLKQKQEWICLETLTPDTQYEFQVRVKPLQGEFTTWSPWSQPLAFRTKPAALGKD

B1: GIC-982C1 (IL-2/IL-15) (Fc fusion)
chain: GSAESKYGPPCPPCPAPEAAGGPSVFLFPPKPKDQLMISRTPEVTCVVVDVSQEDPEVQFNWYVDGVEVHNAKTKPREEQFNSTYRVVSVLTVLHQDWLNGKEYKCKVSNKGLPSSIEKTISKAKGQPREPQVYTLPPSQEEMTKNQVSLTCLVKGFYPSDIAVEWESNGQPENNYKTTPPVLDSDGSFFLYSRLTVDKSRWQEGNVFSCSVLHEALHNHYTQKSLSLSLGGGGGSGGGGSITCPPPMSVEHADIWVKSYSLYSRERYICNSGFKRKAGTSSLTECVLNKATNVAHWTTPSLKCIRGGGGSGGGGSGGGGSGGGGSAPTSSSTKKTQLQLEHLLLDLQMILNGSMHIDATLYTESDVHPSCKVTAMKCFLLELQVISLESKNFHLRPRDLISNINVIVLELKGSNGNVTESGCKECEELEEKNIVEFLNRWITFCQSIISTLT
EC50 (ng/ml), STAT5 activity, HEK-Blue CD122/132 reporter cells [1]: 1730 ng/mL
Kd [2]: 387 nM
koff [2]: 0.000335 s⁻¹
kon [2]: 866 M⁻¹ s⁻¹

B5: GIC-982C4 (IL-2/IL-15v3) (S76D) (Fc fusion)
chain: B1 chain with S402D
notes: the entry already holds the change
EC50 (ng/ml), STAT5 activity, HEK-Blue CD122/132 reporter cells [1]: 255 ng/mL
Kd [2]: 144 nM
koff [2]: 0.000338 s⁻¹
kon [2]: 2350 M⁻¹ s⁻¹

B8: GIC-982C2 (IL-2/IL-15v1) (D73E) (Fc fusion)
chain: B1 chain with D399E
notes: as for B5
EC50 (ng/ml), STAT5 activity, HEK-Blue CD122/132 reporter cells [1]: 1080 ng/mL
Kd [2]: 215 nM
koff [2]: 0.000148 s⁻¹
kon [2]: 686 M⁻¹ s⁻¹

B9: GIC-982C3 (IL-2/IL-15v2) (L74F) (Fc fusion)
chain: B1 chain with L400F
notes: as for B5
EC50 (ng/ml), STAT5 activity, HEK-Blue CD122/132 reporter cells [1]: 9740 ng/mL
Kd [2]: 302 nM
koff [2]: 0.000481 s⁻¹
kon [2]: 1590 M⁻¹ s⁻¹

B10: GIC-982C5 (IL-2/IL-15v4) (N77D) (Fc fusion)
chain: B1 chain with N403D
notes: as for B5
Kd [2]: 1290 nM
koff [2]: 0.000313 s⁻¹
kon [2]: 242 M⁻¹ s⁻¹

More lines, now with the values ahead:

EC50 (ng/ml), STAT5 activity, HEK-Blue CD122/132 reporter cells [1]: 1390 ng/mL
Kd [2]: 105 nM
koff [2]: 0.000204 s⁻¹
kon [2]: 1930 M⁻¹ s⁻¹
B2: GIC-982C13 (IL-2/IL-15v6) (S76E) (Fc fusion)
chain: B1 chain with S402E

EC50 (ng/ml), STAT5 activity, HEK-Blue CD122/132 reporter cells [1]: 134 ng/mL
Kd [2]: 178 nM
koff [2]: 0.000476 s⁻¹
kon [2]: 2670 M⁻¹ s⁻¹
B3: GIC-982C15 (IL-2/IL-15v8) (S76K) (Fc fusion)
chain: B1 chain with S402K

Kd [2]: 265 nM
koff [2]: 9.11e-05 s⁻¹
kon [2]: 344 M⁻¹ s⁻¹
B4: GIC-982C12 (IL-2/IL-15v11) (D73E, L74F, S76D, N77D, V80L) (Fc fusion)
chain: B1 chain with D399E, L400F, S402D, N403D, V406L
notes: the entry already holds the changes

EC50 (ng/ml), STAT5 activity, HEK-Blue CD122/132 reporter cells [1]: 997 ng/mL
Kd [2]: 327 nM
koff [2]: 0.000223 s⁻¹
kon [2]: 686 M⁻¹ s⁻¹
B6: GIC-982C14 (IL-2/IL-15v7) (S76N) (Fc fusion)
chain: B1 chain with S402N

EC50 (ng/ml), STAT5 activity, HEK-Blue CD122/132 reporter cells [1]: 723 ng/mL
Kd [2]: 386 nM
koff [2]: 0.000435 s⁻¹
kon [2]: 1130 M⁻¹ s⁻¹
B7: GIC-982C6 (IL-2/IL-15v5) (V80L) (Fc fusion)
chain: B1 chain with V406L
notes: as for B5
